According to paper PMC4951027:

Biological target: ecto-domain of integrin α5β1-Fc fusion protein
Experiment: SPR

B1: Fn + FnBPA-10 (FnBPA-10-bound Fn) (complex)
chain 1: not shown
chain 2: not shown
chain 3: KYEHGGNIIDIDFDSVPHIHGFNKHTEIIEEDTNKDKP
  Kd: 260 nM
  ka1 (first step, bivalent analyte model): 61000 M⁻¹ s⁻¹
  ka2 (second step, bivalent analyte model): 1.3e-05 RU^-1s^-1
  kd1 (first step, bivalent analyte model): 0.015 s⁻¹
  kd2 (second step, bivalent analyte model): 0.001 s⁻¹
